According to publication PMC7826273:
Where two headings read alike, the source gives them in different places.

Tests used:
FmhB [1] = biological target: T1, FmhB (Staphylococcus aureus, UniProt Q2FVZ4 1-421); test: competition
T1 sequence: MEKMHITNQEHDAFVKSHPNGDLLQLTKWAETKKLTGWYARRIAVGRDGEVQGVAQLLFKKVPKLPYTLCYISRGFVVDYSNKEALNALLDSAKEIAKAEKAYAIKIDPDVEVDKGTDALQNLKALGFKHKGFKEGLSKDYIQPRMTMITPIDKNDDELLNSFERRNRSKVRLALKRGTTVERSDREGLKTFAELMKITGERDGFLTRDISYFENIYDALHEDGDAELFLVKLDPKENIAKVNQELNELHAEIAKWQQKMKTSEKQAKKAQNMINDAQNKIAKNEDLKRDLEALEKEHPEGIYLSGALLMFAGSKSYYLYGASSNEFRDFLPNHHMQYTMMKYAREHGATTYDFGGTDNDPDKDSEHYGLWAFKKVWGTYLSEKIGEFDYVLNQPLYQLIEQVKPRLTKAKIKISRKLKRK

FmhB [2] = biological target: T1, FmhB; test: competition; remark: listed apart in the source
FmhB [3] = biological target: T1, FmhB; test: competition; remark: listed apart in the source
EF-Tu (GTP form) = EF-Tu (GTP form) (UniProt P99152 1-394); test: competition
EF-Tu (GTP form), sequence (P99152 whole entry): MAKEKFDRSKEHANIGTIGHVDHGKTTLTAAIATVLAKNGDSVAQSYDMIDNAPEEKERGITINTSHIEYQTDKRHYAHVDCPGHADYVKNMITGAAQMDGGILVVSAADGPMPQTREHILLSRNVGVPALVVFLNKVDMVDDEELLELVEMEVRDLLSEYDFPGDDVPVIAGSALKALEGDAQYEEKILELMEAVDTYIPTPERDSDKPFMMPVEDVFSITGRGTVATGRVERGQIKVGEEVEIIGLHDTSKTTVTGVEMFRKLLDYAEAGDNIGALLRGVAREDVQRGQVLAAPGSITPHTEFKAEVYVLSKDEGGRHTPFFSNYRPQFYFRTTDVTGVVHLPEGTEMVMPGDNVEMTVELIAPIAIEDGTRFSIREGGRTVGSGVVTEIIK

FmhB [4] = biological target: T1, FmhB; test: size-exclusion chromatography
FmhB [5] = biological target: T1, FmhB; test: competition; remark: listed apart in the source

B1: NP2 stable Gly-tRNA analogue, 2' isomer (structured_RNA)
RNA: GCGGGAGUAGUUCAACUUUUAGAACACGUUCCUUCCCGGAACGAGGUAUAGGUGUAAAUCCUAUCUUCCGCUCCA
modifications: 2'-(1,4-triazole-alkyne; nonadiyne) on terminal A; penultimate C is dC (pdCpA ligation)
Ki (FmhB [1]): 8.6 ± 2 nM

B2: NP2 stable Gly-tRNA analogue, 3' isomer (structured_RNA)
RNA: GCGGGAGUAGUUCAACUUUUAGAACACGUUCCUUCCCGGAACGAGGUAUAGGUGUAAAUCCUAUCUUCCGCUCCA
modifications: 3'-(1,4-triazole-alkyne; nonadiyne) on terminal A; penultimate C is dC (pdCpA ligation)
Ki (FmhB [2]): 110 ± 6 nM

B3: P1_1 analogue (P1 with NP2 region 1) (structured_RNA)
RNA: GCAGAAGUAGUUCAACUUUUAGAAUACAACCUUGCCAAGGUUGGGGUGCGGGUUCGAAUCCCGUCUUCUGCUCCA
modifications: stable triazole-nonadiyne analogue (2' isomer presumed)
binding signal (FmhB [3]): 2 ± 0.3 fold reduction in Ki vs P1 analogue

B4: Gly-tRNAGly P1 (structured_RNA)
RNA: GCAGAAGUAGUUCAGCGGUAGAAUACAACCUUGCCAAGGUUGGGGUCGCGGGUUCGAAUCCCGUCUUCUGCUCCA
modifications: 3'-glycyl ester
binding signal (EF-Tu (GTP form)): 14 ± 3 % residual FmhB activity at 4 uM EF-Tu

B5: tRNAGly P1 (GCC-1), unacylated (structured_RNA)
RNA: GCAGAAGUAGUUCAGCGGUAGAAUACAACCUUGCCAAGGUUGGGGUCGCGGGUUCGAAUCCCGUCUUCUGCUCCA
binding result (FmhB [4]): no binding

B6: P1 stable Gly-tRNA analogue, 2' isomer (structured_RNA)
RNA: GCAGAAGUAGUUCAGCGGUAGAAUACAACCUUGCCAAGGUUGGGGUCGCGGGUUCGAAUCCCGUCUUCUGCUCCA
modifications: 2'-(1,4-triazole-alkyne; nonadiyne) on terminal A; penultimate C is dC (pdCpA ligation)
Ki (FmhB [2]): 320 ± 10 nM

B7: CHIM1 analogue (NP2 with P1 acceptor stem) (structured_RNA)
RNA: GCAGAAGUAGUUCAACUUUUAGAACACGUUCCUUCCCGGAACGAGGUAUAGGUGCAAAUCCUAUCUUCUGCUCCA
modifications: 2'-triazole-nonadiyne on terminal A; penultimate C is dC
Ki (FmhB [5]): 7.6 ± 0.7 nM

B8: CHIM2 analogue (P1 with NP2 acceptor stem) (structured_RNA)
RNA: GCGGGAGUAGUUCAGCGGUAGAAUACAACCUUGCCAAGGUUGGGGUCGCGGGUUCGAAUCCCGUCUUCCGCUCCA
modifications: 2'-triazole-nonadiyne on terminal A; penultimate C is dC
Ki (FmhB [5]): 1000 ± 160 nM

B9: CHIM3 analogue (NP2 with P1 anticodon stem-loop) (structured_RNA)
RNA: GCGGGAGUAGUUCAACUUUUAGAACACAACCUUGCCAAGGUUGAGGUAUAGGUGUAAAUCCUAUCUUCCGCUCCA
modifications: 2'-triazole-nonadiyne on terminal A; penultimate C is dC
Ki (FmhB [5]): 5.4 ± 0.3 nM

B10: CHIM4 analogue (P1 with NP2 anticodon stem-loop) (structured_RNA)
RNA: GCAGAAGUAGUUCAGCGGUAGAAUACGUUCCUUCCCGGAACGGGGUCGCGGGUUCGAAUCCCGUCUUCUGCUCCA
modifications: 2'-triazole-nonadiyne on terminal A; penultimate C is dC
Ki (FmhB [5]): 220 ± 40 nM

B11: CHIM5 analogue (NP2 with P1 anticodon stem-loop and acceptor stem) (structured_RNA)
RNA: GCAGAAGUAGUUCAACUUUUAGAACACAACCUUGCCAAGGUUGAGGUAUAGGUGUAAAUCCUAUCUUCUGCUCCA
modifications: 2'-triazole-nonadiyne on terminal A; penultimate C is dC
Ki (FmhB [5]): 19 ± 2 nM
